Data from the supplement of paper PMC5998384.

Columns and labels:
[1] = tested on: HeLa Kyoto; assay: melting temperature (median over replicates), in situ; higher = more thermally stable
[2] = tested on: HeLa Kyoto; assay: solubility change mitosis vs G1/S (difference of NP-40 vs SDS log2 ratios) (log2 ratio difference); higher = more soluble in mitosis
[3] = tested on: HeLa Kyoto; assay: thermal stability score vs G1/S (z-score of summed log2 fold changes over temperatures); higher = more thermally stable than in G1/S
[4] = tested on: HeLa Kyoto; assay: solubility in G1/S (NP-40 vs SDS abundance) (log2 ratio); higher = more soluble; details: cell cycle stage: G1/S
[5] = cell cycle stage: early G1 (4.5 h after nocodazole release)
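Wherever melting temperature (median over replicates), in situ is given: HeLa Kyoto cells synchronized by double thymidine or nocodazole block, proteins quantified by TMT10plex mass spectrometry, three independent biological replicates.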
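Wherever solubility change mitosis vs G1/S (difference of NP-40 vs SDS log2 ratios) is given: synchronized HeLa Kyoto cells (double thymidine block for G1/S, nocodazole release for mitosis), protein amounts in NP-40 versus SDS lysates quantified by mass spectrometry, three biological replicates.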
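Wherever solubility in G1/S (NP-40 vs SDS abundance) is given: HeLa Kyoto cells arrested at G1/S by double thymidine block, proteins quantified by TMT10plex mass spectrometry in mild NP-40 versus SDS extracts, three biological replicates.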
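Wherever thermal stability score vs G1/S (z-score of summed log2 fold changes over temperatures) is given: synchronized HeLa Kyoto cells, proteins quantified by TMT10plex mass spectrometry, three biological replicates, mitosis taken 0.5 h after nocodazole release, G1/S directly after double thymidine block.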

Sequence | melting temperature ([1]; cell cycle stage: G1/S) | melting temperature ([1]; cell cycle stage: mitosis) | solubility change mitosis (log2) [2] | thermal stability score [3, 5] | thermal stability score ([3]; cell cycle stage: mitosis) | solubility in G1/S (log2) [4]
MTPPPPPPPPPGPDPAADPAADPCPWPGSLVVLFGATAGALGRDLGSDETDLILLVWQVVEPRSRQVGTLHKSLVRAEAAALSTQCREASGLSADSLARAEPLDKVLQQFSQLVNGDVALLGGGPYMLCTDGQQLLRQVLHPEASRKNLVLPDMFFSFYDLRREFHMQHPSTCPARDLTVATMAQGLGLETDATEDDFGVWEVKTMVAVILHLLKEPSSQLFSKPEVIKQKYETGPCSDSTVPCPYSSKADVVDSETVVRARGLPWQSSDQDVARFFKGLNVARGGVALCLNAQGRRNGEALIRFVDSEQRDLALQRHKHHMGVRYIEVYKATGEEFVKIAGGTSLEVARFLSREDQVILRLRGLPFSAGPTDVLGFLGPECPVTGGTEGLLFVRHPDGRPTGDAFALFACEELAQAALRRHKGMLGKRYIELFRSTAAEVQQVLNRYASGPLLPTLTAPLLPIPFPLAPGTGRDCVRLRGLPYTATIEDILSFLGEAAADIRPHGVHMVLNQQGRPSGDAFIQMTSAERALAAAQRCHKKVMKERYVEVVPCSTEEMSRVLMGGTLGRSGMSPPPCKLPCLSPPTYTTFQATPTLIPTETAALYPSSALLPAARVPAAPTPVAYYPGPATQLYLNYTAYYPSPPVSPTTVGYLTTPTAALASAPTSVLSQSGALVRMQGVPYTAGMKDLLSVFQAYQLPADDYTSLMPVGDPPRTVLQAPKEWVCL [ESRP2] | 45.2 °C | 47.7 °C | 0.0705 | 1.55 | 2.39 | 0.0652
MTPPRLFWVWLLVAGTQGVNDGDMRLADGGATNQGRVEIFYRGQWGTVCDNLWDLTDASVVCRALGFENATQALGRAAFGQGSGPIMLDEVQCTGTEASLADCKSLGWLKSNCRHERDAGVVCTNETRSTHTLDLSRELSEALGQIFDSQRGCDLSISVNVQGEDALGFCGHTVILTANLEAQALWKEPGSNVTMSVDAECVPMVRDLLRYFYSRRIDITLSSVKCFHKLASAYGARQLQGYCASLFAILLPQDPSFQMPLDLYAYAVATGDALLEKLCLQFLAWNFEALTQAEAWPSVPTDLLQLLLPRSDLAVPSELALLKAVDTWSWGERASHEEVEGLVEKIRFPMMLPEELFELQFNLSLYWSHEALFQKKTLQALEFHTVPFQLLARYKGLNLTEDTYKPRIYTSPTWSAFVTDSSWSARKSQLVYQSRRGPLVKYSSDYFQAPSDYRYYPYQSFQTPQHPSFLFQDKRVSWSLVYLPTIQSCWNYGFSCSSDELPVLGLTKSGGSDRTIAYENKALMLCEGLFVADVTDFEGWKAAIPSALDTNSSKSTSSFPCPAGHFNGFRTVIRPFYLTNSSGVD [LGALS3BP] | 54.5 °C | 55.9 °C | -0.127 | 1.36 | 2.15 | -0.0572
MTQQPLRGVTSLRFNQDQSCFCCAMETGVRIYNVEPLMEKGHLDHEQVGSMGLVEMLHRSNLLALVGGGSSPKFSEISVLIWDDAREGKDSKEKLVLEFTFTKPVLSVRMRHDKIVIVLKNRIYVYSFPDNPRKLFEFDTRDNPKGLCDLCPSLEKQLLVFPGHKCGSLQLVDLASTKPGTSSAPFTINAHQSDIACVSLNQPGTVVASASQKGTLIRLFDTQSKEKLVELRRGTDPATLYCINFSHDSSFLCASSDKGTVHIFALKDTRLNRRSALARVGKVGPMIGQYVDSQWSLASFTVPAESACICAFGRNTSKNVNSVIAICVDGTFHKYVFTPDGNCNREAFDVYLDICDDDDF [WDR45] | 53.4 °C | 53.6 °C | -0.0635 | -0.724 | -0.704 | -0.26
MTRHGKNCTAGAVYTYHEKKKDTAASGYGTQNIRLSRDAVKDFDCCCLSLQPCHDPVVTPDGYLYEREAILEYILHQKKEIARQMKAYEKQRGTRREEQKELQRAASQDHVRGFLEKESAIVSRPLNPFTAKALSGTSPDDVQPGPSVGPPSKDKDKVLPSFWIPSLTPEAKATKLEKPSRTVTCPMSGKPLRMSDLTPVHFTPLDSSVDRVGLITRSERYVCAVTRDSLSNATPCAVLRPSGAVVTLECVEKLIRKDMVDPVTGDKLTDRDIIVLQRGGTGFAGSGVKLQAEKSRPVMQA [NOSIP] | 45.8 °C | 47.8 °C | -0.163 | 4.16 | 6.51 | 0.262
MTSELDIFVGNTTLIDEDVYRLWLDGYSVTDAVALRVRSGILEQTGATAAVLQSDTMDHYRTFHMLERLLHAPPKLLHQLIFQIPPSRQALLIERYYAFDEAFVREVLGKKLSKGTKKDLDDISTKTGITLKSCRRQFDNFKRVFKVVEEMRGSLVDNIQQHFLLSDRLARDYAAIVFFANNRFETGKKKLQYLSFGDFAFCAELMIQNWTLGAVGEAPTDPDSQMDDMDMDLDKEFLQDLKELKVLVADKDLLDLHKSLVCTALRGKLGVFSEMEANFKNLSRGLVNVAAKLTHNKDVRDLFVDLVEKFVEPCRSDHWPLSDVRFFLNQYSASVHSLDGFRHQALWDRYMGTLRGCLLRLYHD [FIBP] | 50.3 °C | 49.5 °C | -0.13 | -0.876 | 0.233 | -0.45
